Experiments:
[1] = molecular target: T1, human FcγRI on hFcγRI-expressing U937 cells (human, UniProt P12314 16-374); test: flow cytometry on U937 cells, NSO supernatant, in the presence of human IgG, Rb anti-PspA or Rb anti-HSA detection
T1 construct: whole, on cells; also called hFcγRI on U937 cells

[2] = molecular target: T2, human FcγRI (hFcγRI), coated on ELISA wells (human, UniProt P12314 16-288); test: ELISA, hFcγRI-coated wells, NSO supernatant, Rb anti-PspA or Rb anti-HSA detection
T2 construct: also called CD64
T2 sequence (P12314 16-288 limits assumed): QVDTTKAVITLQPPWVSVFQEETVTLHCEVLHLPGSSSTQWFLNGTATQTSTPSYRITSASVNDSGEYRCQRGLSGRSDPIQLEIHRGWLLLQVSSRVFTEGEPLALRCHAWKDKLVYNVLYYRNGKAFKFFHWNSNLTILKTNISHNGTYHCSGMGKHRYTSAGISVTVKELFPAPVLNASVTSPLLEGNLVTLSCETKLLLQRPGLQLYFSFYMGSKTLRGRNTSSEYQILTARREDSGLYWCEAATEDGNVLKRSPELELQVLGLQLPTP

T1 sequence (P12314 16-374): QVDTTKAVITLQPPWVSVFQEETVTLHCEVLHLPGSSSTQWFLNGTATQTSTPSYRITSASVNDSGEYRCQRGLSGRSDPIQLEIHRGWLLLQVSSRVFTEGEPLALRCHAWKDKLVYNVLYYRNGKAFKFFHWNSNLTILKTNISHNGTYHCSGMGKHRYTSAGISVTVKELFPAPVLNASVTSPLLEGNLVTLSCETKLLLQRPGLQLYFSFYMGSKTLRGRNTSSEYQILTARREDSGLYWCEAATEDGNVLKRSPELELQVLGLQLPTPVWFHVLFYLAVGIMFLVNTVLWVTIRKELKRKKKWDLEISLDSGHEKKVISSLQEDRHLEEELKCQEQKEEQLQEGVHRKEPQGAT

B1: trivalent anti-hFcγRI-PspA fusion protein (other)
chain: DIQLTQSPSSLSASVGDRVTITCKSSQSVLYSSNQKNYLAWYQQKPGKAPKLLIYWASTRESGVPSRFSGSGSGTDFTFTISSLQPEDIATYYCHQYLSSWTFGQGTKVEIKSSGGGGSGGGGSGGGGSEVQLVESGGGVVQPGRSLRLSCSSSGFIFSDNYMYWVRQAPGKGLEWVATISDGGSYTYYPDSVKGRFTISRDNSKNTLFLQMDSLRPEDTGVYFCARGYYRYEGAMDYWGQGTPVTVSSGSTGGGGSTSAGGGGSSDIQLTQSPSSLSASVGDRVTITCKSSQSVLYSSNQKNYLAWYQQKPGKAPKLLIYWASTRESGVPSRFSGSGSGTDFTFTISSLQPEDIATYYCHQYLSSWTFGQGTKVEIKSSGGGGSGGGGSGGGGSEVQLVESGGGVVQPGRSLRLSCSSSGFIFSDNYMYWVRQAPGKGLEWVATISDGGSYTYYPDSVKGRFTISRDNSKNTLFLQMDSLRPEDTGVYFCARGYYRYEGAMDYWGQGTPVTVSSGSTGGGGSTASGGGGSSDIQLTQSPSSLSASVGDRVTITCKSSQSVLYSSNQKNYLAWYQQKPGKAPKLLIYWASTRESGVPSRFSGSGSGTDFTFTISSLQPEDIATYYCHQYLSSWTFGQGTKVEIKSSGGGGSGGGGSGGGGSEVQLVESGGGVVQPGRSLRLSCSSSGFIFSDNYMYWVRQAPGKGLEWVATISDGGSYTYYPDSVKGRFTISRDNSKNTLFLQMDSLRPEDTGVYFCARGYYRYEGAMDYWGQGTPVTVSSGSTGGGGSTEFMEESPVASQSKAEKDYDAAKKDAKNAKKAVEDAQKALDDAKAAQKKYDEDQKKTEEKAALEKAASEEMDKAVAAVQQAYLAYQQATDKAAKDAADKMIDEAKKREEEAKTKFNTVRAMVVPEPEQLAETKKKSEEAKQKAPELTKKLEEAKAKLEEAEKKATEAKQKVDAEEVAPQAKIAELENQVHRLEQELKEIDESESEDYAKEGFRAPLQSKLDAKKAKLSKLEELSDKIDELDAEIAKLEDQLKAAEENNNVEDYFKEGLEKTIAAKKAELEKTEADLKKAVNEPEKPAPAPETPAPELEHHHHHH
notes: Single-chain fusion: three humanized 22 (H22) anti-human FcγRI VL-VH scFv units, then PspA (S. pneumoniae strain Rx1) and a His tag; Tested as unpurified supernatant of transfected NSO cells; also called Trivalent Anti-FcγRI-PspA; Construct B
Question: Does B1 bind [1]?
Answer: Result: binds

Question: Does B1 bind [2]?
Answer: Result: binds

Reference: patent US20170035878A1 (ALBANY MEDICAL COLLEGE, published 2017)
